# Reference: paper PMC9315659
# B1: PBS/TLE105:antiPBS18+3 (mixed)
# RNA: GGGCUCUGGUAACUAGAGAUCCCUCAGACCCUUUUAGUCAGUGUGGAAAAUCUCUAGCAGUGGCGCCCGAACAGGGACUUGAAAGCGAAAGUAAAGCCAGAGCCC
# DNA: GTCCCTGTTCGGGCGCCACTG
# B2: PBS/TLE105:antiPBS18+6 (mixed)
# RNA: B1 RNA
# DNA: GTCCCTGTTCGGGCGCCACTGCTA
# B3: PBS/TLE105:antiPBS18+11 (mixed)
# RNA: B1 RNA
# DNA: GTCCCTGTTCGGGCGCCACTGCTAGAGAT
# B4: PBS/TLE105 (structured_RNA)
# RNA: B1 RNA
# B5: PBS/TLE105:antiPBS18 (mixed)
# RNA: B1 RNA
# DNA: GTCCCTGTTCGGGCGCCA
# B6: tRNALys3 (structured_RNA)
# RNA: GCCCGGAUAGCUCAGUCGGUAGAGCAUCAGACUUUUAAUCUGAGGGUCCAGGGUUCAAGUCCCUGUUCGGGCGCCA
# modifications: unmodified transcript
# Experiments:
# S207D LysRS(ΔN65) [1] = target: T1, S207D LysRS(ΔN65) (human, UniProt Q15046 66-597, S207D); test: fluorescence anisotropy; 1 mM Mg2+; settings: protein: recombinant, tags: His, chain copies: 2
# T1 sequence (Q15046 66-597 S207D): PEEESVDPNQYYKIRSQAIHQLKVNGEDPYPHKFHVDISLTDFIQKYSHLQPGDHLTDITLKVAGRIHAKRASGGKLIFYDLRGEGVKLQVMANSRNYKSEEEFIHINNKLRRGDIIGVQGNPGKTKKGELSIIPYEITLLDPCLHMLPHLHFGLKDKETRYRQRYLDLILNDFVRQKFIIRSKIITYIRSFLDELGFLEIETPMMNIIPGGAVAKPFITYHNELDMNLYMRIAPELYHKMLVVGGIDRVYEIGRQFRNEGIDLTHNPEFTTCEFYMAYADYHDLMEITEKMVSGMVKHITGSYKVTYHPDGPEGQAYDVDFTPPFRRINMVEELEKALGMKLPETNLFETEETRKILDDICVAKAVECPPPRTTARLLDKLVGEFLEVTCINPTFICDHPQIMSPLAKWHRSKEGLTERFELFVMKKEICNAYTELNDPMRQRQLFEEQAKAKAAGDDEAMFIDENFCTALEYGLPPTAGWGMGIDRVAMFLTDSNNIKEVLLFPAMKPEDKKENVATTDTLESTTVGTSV
# WT LysRS(ΔN65) [2] = target: T2, WT LysRS(ΔN65) (human, UniProt Q15046 66-597); test: fluorescence anisotropy; 1 mM Mg2+; settings: protein: recombinant, tags: His, chain copies: 2
# T2 sequence (Q15046 66-597, stated change not applied): as the sequence (Q15046 66-597 S207D) above, with D142S counted along it
# S207D LysRS(ΔN65) [3] = target: T1, S207D LysRS(ΔN65); test: fluorescence anisotropy; 1 mM Mg2+; FA: 20 mM Tris-HCl pH 8, 15 mM NaCl, 35 mM KCl, 1 mM MgCl2, 20 nM RNA (30 nM per supplement), temperature not stated; XL-SHAPE: 20 mM HEPES pH 7.5, 60 mM NaCl; settings: protein: recombinant; tags: His; chain copies: 2; label: 3' fluorescein (FTSC); tRNA fold
# WT LysRS(ΔN65) [4] = target: T2, WT LysRS(ΔN65); test: as above; settings: protein: recombinant; tags: His; chain copies: 2; label: 3' fluorescein (FTSC); tRNA fold
# [5] = label: 3' fluorescein (FTSC) on RNA, 21-nt DNA annealed to folded RNA, 1.5x DNA
# [6] = label: 3' fluorescein (FTSC) on RNA, 24-nt DNA annealed, extends into TLE stem, 1.5x DNA
# [7] = label: 3' fluorescein (FTSC) on RNA, 29-nt DNA annealed, extends into TLE stem, 1.5x DNA
# [8] = label: 3' fluorescein (FTSC) in FA, folded domain with TLE hairpin
# [9] = label: 3' fluorescein (FTSC) on RNA, 18-nt DNA annealed to PBS of folded RNA, 1.5x DNA
binder,measurement,setting,value
B1,Kd,S207D LysRS(ΔN65) [1]; [5],305 ± 75 nM
same,Kd,WT LysRS(ΔN65) [2]; [5],488 ± 171 nM
B2,Kd,S207D LysRS(ΔN65) [1]; [6],590 ± 182 nM
same,Kd,WT LysRS(ΔN65) [2]; [6],865 ± 379 nM
B3,Kd,S207D LysRS(ΔN65) [1]; [7],949 ± 148 nM
same,Kd,WT LysRS(ΔN65) [2]; [7],1010 ± 639 nM
B4,Kd,S207D LysRS(ΔN65) [1]; [8],315 ± 130 nM
same,Kd,WT LysRS(ΔN65) [2]; [8],330 ± 115 nM
B5,Kd,S207D LysRS(ΔN65) [1]; [9],417 ± 90 nM
same,Kd,WT LysRS(ΔN65) [2]; [9],240 ± 95 nM
B6,Kd,S207D LysRS(ΔN65) [3],470 ± 190 nM
same,Kd,WT LysRS(ΔN65) [4],407 ± 33 nM
